Data from US20240270821A1, “GIP/GLP1/GCG TRI-RECEPTOR AGONISTS AND USES THEREOF” (priority 2023, published 2024).

T1: human GIP receptor (human) (UniProt P48546)
T1 sequence (looked up): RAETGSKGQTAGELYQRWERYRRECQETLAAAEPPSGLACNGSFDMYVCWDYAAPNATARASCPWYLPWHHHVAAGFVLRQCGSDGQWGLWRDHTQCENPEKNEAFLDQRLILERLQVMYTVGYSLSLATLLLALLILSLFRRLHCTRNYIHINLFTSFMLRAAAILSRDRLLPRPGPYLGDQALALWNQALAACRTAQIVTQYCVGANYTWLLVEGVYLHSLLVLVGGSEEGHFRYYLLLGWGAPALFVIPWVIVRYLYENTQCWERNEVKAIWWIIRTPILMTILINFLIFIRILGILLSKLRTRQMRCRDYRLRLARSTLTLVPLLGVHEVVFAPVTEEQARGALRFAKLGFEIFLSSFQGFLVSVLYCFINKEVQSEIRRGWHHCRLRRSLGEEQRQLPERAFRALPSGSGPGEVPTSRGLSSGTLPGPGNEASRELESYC


How the values were obtained:
Assay in all cases: cell-based or functional assay
hGLP-1R = hGLP-1R (Homo sapiens, UniProt P43220)
[1] = target: T1, human GIP receptor (human)
[2] = target: human GLP1-R (SNAP-GLP-1R expressed in HEK293 cells) (human) (UniProt P43220)
[3] = target: human glucagon receptor (human) (UniProt P47871)
Sequence of human glucagon receptor (human) (P47871 26-477): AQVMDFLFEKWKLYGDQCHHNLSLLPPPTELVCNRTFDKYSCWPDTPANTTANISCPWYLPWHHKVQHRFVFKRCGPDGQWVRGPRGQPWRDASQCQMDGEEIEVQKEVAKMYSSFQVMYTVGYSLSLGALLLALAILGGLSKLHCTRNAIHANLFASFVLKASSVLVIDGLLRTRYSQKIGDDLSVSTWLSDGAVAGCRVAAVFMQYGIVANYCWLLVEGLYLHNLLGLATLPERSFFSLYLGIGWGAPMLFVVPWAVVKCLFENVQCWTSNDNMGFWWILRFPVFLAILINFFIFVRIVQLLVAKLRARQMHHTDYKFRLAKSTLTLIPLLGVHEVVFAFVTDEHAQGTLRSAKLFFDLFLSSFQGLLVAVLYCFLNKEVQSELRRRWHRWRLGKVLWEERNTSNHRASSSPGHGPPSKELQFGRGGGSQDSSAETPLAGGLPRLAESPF

Sequence of human GLP1-R (SNAP-GLP-1R expressed in HEK293 cells) (human) (P43220 24-463): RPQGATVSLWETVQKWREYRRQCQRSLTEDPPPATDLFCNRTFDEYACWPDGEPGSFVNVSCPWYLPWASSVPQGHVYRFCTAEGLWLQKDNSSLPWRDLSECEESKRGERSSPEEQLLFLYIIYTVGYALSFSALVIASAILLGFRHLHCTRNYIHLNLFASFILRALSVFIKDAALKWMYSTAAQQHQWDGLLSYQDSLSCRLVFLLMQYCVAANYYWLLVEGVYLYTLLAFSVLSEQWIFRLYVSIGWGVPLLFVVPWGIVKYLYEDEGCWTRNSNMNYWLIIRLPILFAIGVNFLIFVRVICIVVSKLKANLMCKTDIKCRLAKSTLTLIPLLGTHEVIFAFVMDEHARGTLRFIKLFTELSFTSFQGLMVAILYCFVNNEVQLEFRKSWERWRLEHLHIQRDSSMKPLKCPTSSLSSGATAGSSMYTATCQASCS
Sequence of hGLP-1R (P43220 24-463): as above

Binder | Relative cAMP EC50 (hGLP-1R) [nM] | cAMP Rel EC50 (in the presence of 1% HSA) (hGLP-1R) [nM] | Relative cAMP EC50 [1] [nM] | cAMP Rel EC50 (in the presence of 1% HSA) [1] [nM] | GLP1R Internalization EC50 [2] [nM] | Internalization % TOP [2] [%] | Relative cAMP EC50 [3] [nM] | cAMP Rel EC50 (in the presence of 1% HSA) [3] [nM] | cAMP Rel EC50, nM (in the presence of 1% HSA) (hGLP-1R) [nM] | cAMP Rel EC50, nM (in the presence of 1% HSA) [1] [nM] | cAMP Rel EC50, nM (in the presence of 1% HSA) [3] [nM]
YXQGTFTSDFSKXLDKKAQXAFIEWLLEGGPSSGAPPPSEG (synthetic construct; SITE 2: note = 2-Aminoisobutyric Acid; SITE 13: note = alpha-methyl-leucine; SITE 17: note = Lysine is chemically modified through conjugation of the epsilon-amino group of the Lysine side chain with (2-[2-(2-Amino-ethoxy)-ethoxy]-acetyl)-(gamma-Glu)-CO-(CH2) 18-CO2H; SITE 20: n) [Example 37] | 1.66 | 514 | 0.207 | 56.4 | 51.6 | 68.3 | 6.83 | 1870 |  |  | 
YXQGTFTSDFSKXLDKKAQXAFIEYLLEXGPSSGEPPPSEG (Aib, αMeL; acylated Lys; C-terminal amide; synthetic construct; SITE 2: note = 2-Aminoisobutyric Acid; SITE 13: note = alpha-methyl-leucine; SITE 17: note = Lysine is chemically modified through conjugation of the epsilon-amino group of the Lysine side chain with (2-[2-(2-Amino-ethoxy)-ethoxy]-acetyl)-(gamma-Glu)-CO-(CH2) 16-CO2H; SITE 20: n) [Example 46] | 4.04 | 601 | 0.0947 | 19.6 | 41 | 58.1 | 1.53 | 393 |  |  | 
YXQGTFTSDFSKXLDKKAQXAFIEYLLEXGPSSGAPPPSGS (synthetic construct; SITE 2: note = 2-Aminoisobutyric Acid; SITE 13: note = alpha-methyl-leucine; SITE 17: note = Lysine is chemically modified through conjugation of the epsilon-amino group of the Lysine side chain with (2-[2-(2-Amino-ethoxy)-ethoxy]-acetyl)-(gamma-Glu)-CO-(CH2) 18-CO2H; SITE 20: n) [Example 45] | 1.52 | 493 | 0.112 | 33.4 | 52.6 | 62.1 | 2.08 | 879 |  |  | 
YXQGTFTSDFSKXLDKKAQXAFIEYLIEGGPSSGAPPPSEG (not fully specified; synthetic construct; SITE 2: note = 2-Aminoisobutyric Acid; SITE 13: note = alpha-methyl-leucine; SITE 17: note = Lysine is chemically modified through conjugation of the epsilon-amino group of the Lysine side chain with (2-[2-(2-Amino-ethoxy)-ethoxy]-acetyl)-(gamma-Glu)-CO-gamma -gamma-(CH2)16-CO2H) [Example 49] | 0.706 |  | 0.324 |  | 37.2 | 53.2 | 5.54 |  | 151 | 44.9 | 1310
YXQGTFTSDFSKXLDKKAQXAFIEYLLEXGPSSGAPPPGGS (synthetic construct; SITE 2: note = 2-Aminoisobutyric Acid; SITE 13: note = alpha-methyl-leucine; SITE 17: note = Lysine is chemically modified through conjugation of the epsilon-amino group of the Lysine side chain with (2-[2-(2-Amino-ethoxy)-ethoxy]-acetyl)-(gamma-Glu)-CO-(CH2) 18-CO2H; SITE 20: n) [Example 43] | 1.55 | 539 | 0.101 | 29.6 | 58.2 | 68.3 | 2.71 | 850 |  |  | 
YXQGTFTSDFSXXLDKKAQXAFIEYLLEGGPSSGAPPPSEG (synthetic construct; SITE 2: note = 2-Aminoisobutyric Acid; SITE 12: note = L-ornithine; SITE 13: note = alpha-methyl-leucine; SITE 17: note = Lysine is chemically modified through conjugation of the epsilon-amino group of the Lysine side chain with (2-[2-(2-Amino-ethoxy)-ethoxy]-acetyl)-(gamma-Glu)) [Example 50] | 4.65 |  | 0.29 |  | 30.1 | 31.1 | 4.25 |  | 1110 | 69.6 | 1040
YXQGTFTSDFSKXLDKKAQXAFIEYLLEXGPSSGAPPPSEG (synthetic construct; SITE 2: note = 2-Aminoisobutyric Acid; SITE 13: note = alpha-methyl-leucine; SITE 17: note = Lysine is chemically modified through conjugation of the epsilon-amino group of the Lysine side chain with (2-[2-(2-Amino-ethoxy)-ethoxy]-acetyl)-(gamma-Glu)-CO-(CH2) 16-CO2H; SITE 20: n) [Example 57] | 3.06 |  | 0.098 |  | 76.6 | 73.1 | 4.37 |  | 42.7 | 3.78 | 113
YXQGTFTSDFSKXLDKKAQXAFIEYLLEGGPSSGAPPPSEG (synthetic construct; SITE 2: note = 2-Aminoisobutyric Acid; SITE 13: note = alpha-methyl-leucine; SITE 17: note = Lysine is chemically modified through conjugation of the epsilon-amino group of the Lysine side chain with (gamma-Glu)2-CO-(CH2)16-CO2H; SITE 20: note = 2-Aminoisobutyric Acid; SITE 41:) [Example 58] | 2.93 |  | 0.175 |  | 56.2 | 78.1 | 4.86 |  | 20.7 | 3.75 | 115
YXQGTFTSDFSKXLDKKAQXQFIEYLLEGGPSSGAPPPSEG (synthetic construct; SITE 2: note = 2-Aminoisobutyric Acid; SITE 13: note = alpha-methyl-leucine; SITE 17: note = Lysine is chemically modified through conjugation of the epsilon-amino group of the Lysine side chain with (2-[2-(2-Amino-ethoxy)-ethoxy]-acetyl)-(gamma-Glu)-CO-(CH2) 16-CO2H; SITE 20: n) [Example 51] | 5.8 |  | 0.421 |  | 89.2 | 55.7 | 5.15 |  | 1210 | 98.4 | 856
YXQGTFTSDFSRXLDKKAQXAFIEYLLEGGPSSGAPPPGGS (synthetic construct; SITE 2: note = 2-Aminoisobutyric Acid; SITE 13: note = alpha-methyl-leucine; SITE 17: note = Lysine is chemically modified through conjugation of the epsilon-amino group of the Lysine side chain with (2-[2-(2-Amino-ethoxy)-ethoxy]-acetyl)-(gamma-Glu)-CO-(CH2) 18-CO2H; SITE 20: n) [Example 41] | 2.2 | 711 | 0.258 | 97.9 | 83.7 | 62.3 | 8.59 | 2310 |  |  | 
YXQGTFTSDFSXXLDKKAQXAFIEYLLEGGPSSGAPPPGGS (synthetic construct; SITE 2: note = 2-Aminoisobutyric Acid; SITE 12: note = L-ornithine; SITE 13: note = alpha-methyl-leucine; SITE 17: note = Lysine is chemically modified through conjugation of the epsilon-amino group of the Lysine side chain with (2-[2-(2-Amino-ethoxy)-ethoxy]-acetyl)-(gamma-Glu)) [Example 62] | 2.72 |  | 0.146 |  | 40.3 | 44.9 | 3.96 |  | 299 | 31.2 | 396
YXQGTFTSDFSKXLDKKAQXAFIEYLLEGGPSSGAPPPSEG (not fully specified; synthetic construct; SITE 2: note = 2-Aminoisobutyric Acid; SITE 13: note = alpha-methyl-leucine; SITE 17: note = Lysine is chemically modified through conjugation of the epsilon-amino group of the Lysine side chain with (2-[2-(2-Amino-ethoxy)-ethoxy]-acetyl)-(gamma-Glu)-CO-(CH2) 16-CO2H; SITE 20: n) [Example 48] | 2.99 |  | 0.27 |  | 44 | 55.2 | 3.8 |  | 570 | 46.9 | 728
YXQGTFTSDFSKXLDKKAQXAFIEYLLEXGPSSGAPPPSSG (synthetic construct; SITE 2: note = 2-Aminoisobutyric Acid; SITE 13: note = alpha-methyl-leucine; SITE 17: note = Lysine is chemically modified through conjugation of the epsilon-amino group of the Lysine side chain with (2-[2-(2-Amino-ethoxy)-ethoxy]-acetyl)-(gamma-Glu)-CO-(CH2) 18-CO2H; SITE 20: n) [Example 44] | 1.66 | 591 | 0.116 | 35.9 | 51.5 | 65 | 2.46 | 1050 |  |  | 
YXQGTFTSDFSKXLDKKAQXAFIEYLLEXGPSSGAPPPGEG (synthetic construct; SITE 2: note = 2-Aminoisobutyric Acid; SITE 13: note = alpha-methyl-leucine; SITE 17: note = Lysine is chemically modified through conjugation of the epsilon-amino group of the Lysine side chain with (2-[2-(2-Amino-ethoxy)-ethoxy]-acetyl)2-(gamma-Glu)-CO-(CH2 )18-CO2H; SITE 20:) [Example 55] | 1.96 |  | 0.0856 |  | 79.5 | 70.7 | 5.2 |  | 479 | 27.8 | 960
YXQGTFTSDFSKXLDKKAQXAFIEYLLAGGPSSGEPPPSEGX (synthetic construct; SITE 2: note = 2-Aminoisobutyric Acid; SITE 13: note = alpha-methyl-leucine; SITE 17: note = Lysine is chemically modified through conjugation of the epsilon-amino group of the Lysine side chain with (2-[2-(2-Amino-ethoxy)-ethoxy]-acetyl)-(gamma-Glu)-CO-(CH2) 18-CO2H; SITE 20: n) [Example 32] | 2.55 | 422 | 0.28 | 66.1 | 86.1 | 64.4 | 11.6 | 1440 |  |  | 
YXQGTFTSDFSKXLDKKAQXAFIEYLLAGGPSSGEPPPSGEX (not fully specified; synthetic construct; SITE 2: note = 2-Aminoisobutyric Acid; SITE 13: note = alpha-methyl-leucine; SITE 17: note = Lysine is chemically modified through conjugation of the epsilon-amino group of the Lysine side chain with (2-[2-(2-Amino-ethoxy)-ethoxy]-acetyl)-(gamma-Glu)-CO-(CH2) 18-CO2H; SITE 20: n) [Example 33] | 1.71 | 436 | 0.285 | 70.7 | 106 | 64.6 | 7.04 | 1310 |  |  | 
YXQGTFTSDFSRXLDKKAQXAFIEYLLEXGPSSGAPPPGGS (synthetic construct; SITE 2: note = 2-Aminoisobutyric Acid; SITE 13: note = alpha-methyl-leucine; SITE 17: note = Lysine is chemically modified through conjugation of the epsilon-amino group of the Lysine side chain with (2-[2-(2-Amino-ethoxy)-ethoxy]-acetyl)-(gamma-Glu)-CO-(CH2) 18-CO2H; SITE 20: n) [Example 42] | 2.17 | 700 | 0.115 | 32.3 | 61.4 | 58.3 | 5.83 | 1520 |  |  | 
